Data on one molecule can be found in PMC4166121, “Endothelial nitric oxide synthase is regulated by ERK phosphorylation at Ser^602” (Bioscience Reports, 2014).

The target of the experiment is T1, biotinylated calmodulin (UniProt P0DP23 1-149, biotin (biotinylated; site not stated)).
T1 construct: calmodulin (CaM); experiments done 'essentially as described in [27]'; Held by its biotin on streptavidin sensors (BLI) or a biotin CAPture chip (SPR); also called CaM; biotinylated CaM
In words: BLI; biotinylated CaM immobilised on streptavidin sensors; eNOS 0, 10.9, 31.9, 43.7 and 87.5 nM as analyte; 180 s association, 180 s dissociation; 10 mM HEPES pH 7.4, 100 mM NaCl, 10% glycerol, 10 uM CaCl2, 0.05% surfactant P-20; 25°C; global single-state fit. The following applies: both partners purified. A general note: Biolayer interferometry detects binding as a change in optical thickness at a sensor tip.

B1: endothelial nitric oxide synthase phosphorylated by ERK (enzyme)
chain: MGNLKSVGQEPGPPCGLGLGLGLGLCGKQGPASPAPEPSRAPAPATPHAPDHSPAPNSPTLTRPPEGPKFPRVKNWELGSITYDTLCAQSQQDGPCTPRCCLGSLVLPRKLQTRPSPGPPPAEQLLSQARDFINQYYSSIKRSGSQAHEERLQEVEAEVASTGTYHLRESELVFGAKQAWRNAPRCVGRIQWGKLQVFDARDCSSAQEMFTYICNHIKYATNRGNLRSAITVFPQRAPGRGDFRIWNSQLVRYAGYRQQDGSVRGDPANVEITELCIQHGWTPGNGRFDVLPLLLQAPDEAPELFVLPPELVLEVPLEHPTLEWFAALGLRWYALPAVSNMLLEIGGLEFSAAPFSGWYMSTEIGTRNLCDPHRYNILEDVAVCMDLDTRTTSSLWKDKAAVEINLAVLHSFQLAKVTIVDHHAATVSFMKHLDNEQKARGGCPADWAWIVPPISGSLTPVFHQEMVNYILSPAFRYQPDPWKGSATKGAGITRKKTFKEVANAVKISASLMGTLMAKRVKATILYASETGRAQSYAQQLGRLFRKAFDPRVLCMDEYDVVSLEHEALVLVVTSTFGNGDPPENGESFAAALMEMSGPYNSSPRPEQHKSYKIRFNSVSCSDPLVSSWRRKRKESSNTDSAGALGTLRFCVFGLGSRAYPHFCAFARAVDTRLEELGGERLLQLGQGDELCGQEEAFRGWAKAAFQASCETFCVGEEAKAAAQDIFSPKRSWKRQRYRLSTQAEGLQLLPGLIHVHRRKMFQATVLSVENLQSSKSTRATILVRLDTAGQEGLQYQPGDHIGICPPNRPGLVEALLSRVEDPPPPTESVAVEQLEKGSPGGPPPSWVRDPRLPPCTLRQALTFFLDITSPPSPRLLRLLSTLAEEPSEQQELETLSQDPRRYEEWKWFRCPTLLEVLEQFPSVALPAPLLLTQLPLLQPRYYSVSSAPNAHPGEVHLTVAVLAYRTQDGLGPLHYGVCSTWLSQLKTGDPVPCFIRGAPSFRLPPDPYVPCILVGPGTGIAPFRGFWQERLHDIESKGLQPAPMTLVFGCRCSQLDHLYRDEVQDAQERGVFGRVLTAFSREPDSPKTYVQDILRTELAAEVHRVLCLERGHMFVCGDVTMATSVLQTVQRILATEGDMELDEAGDVIGVLRDQQRYHEDIFGLTLRTQEVTSRIRTQSFSLQERHLRGAVPWAFDPPGPDTPGP
modifications: phosphothreonine at 46, phosphoserine at 58, phosphoserine at 602 (by ERK in vitro; 2-3 phosphates per monomer; phosphorylation incomplete, at least 75%)
notes: endothelial nitric oxide synthase (eNOS); the residue numbers used (Thr46, Ser58, Ser602; Ser602 = human Ser600) are those of bovine eNOS; Same protein as m2 after the ERK kinase reaction (20 mM Hepes pH 7.4, 1 mM DTT, 10 mM MgCl2, 1 mM ATP, 10% glycerol, room temperature); also called ERK phosphorylated eNOS; phosphorylated eNOS
As usually defined, the koff is a measure of how fast the partners let go of each other. Low values mean a long-lived complex, high ones a short-lived complex. B1 gave a koff of 0.00033 s⁻¹.
